Experimental data from US20170298121A1 (GlaxoSmithKline, published 2017).

Biological target: T1, Rat Serum Albumin (rat, UniProt P02770 25-608)
T1 construct: Bought purified serum albumin; coupled to CM5 chips for BiaCore; also called RSA; rat SA
Experiment: SPR (BiaCore)

T1 sequence (P02770 25-608 limits assumed): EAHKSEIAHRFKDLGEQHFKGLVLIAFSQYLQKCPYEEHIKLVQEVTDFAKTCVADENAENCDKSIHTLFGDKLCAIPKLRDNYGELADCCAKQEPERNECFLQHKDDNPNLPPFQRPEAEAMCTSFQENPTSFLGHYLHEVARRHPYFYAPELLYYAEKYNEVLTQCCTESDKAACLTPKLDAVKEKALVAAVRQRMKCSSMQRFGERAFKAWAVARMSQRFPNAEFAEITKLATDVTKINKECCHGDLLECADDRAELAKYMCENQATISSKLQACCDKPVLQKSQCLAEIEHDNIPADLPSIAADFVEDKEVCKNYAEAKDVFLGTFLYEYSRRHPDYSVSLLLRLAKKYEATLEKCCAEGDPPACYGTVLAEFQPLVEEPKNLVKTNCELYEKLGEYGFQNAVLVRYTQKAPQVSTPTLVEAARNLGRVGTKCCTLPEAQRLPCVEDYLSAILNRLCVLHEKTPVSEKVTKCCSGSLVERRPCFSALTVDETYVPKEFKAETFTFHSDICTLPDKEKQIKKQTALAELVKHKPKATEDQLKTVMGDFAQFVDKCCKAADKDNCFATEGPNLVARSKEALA

Row | Binder | fold decrease in affinity against the unfused ALBUDAB [fold]
1 | DOM7h-11-12/DOM1m-21-23 fusion DMS number 5516 (other, DOM1m-21-23 - ASTSGPS - DOM7h-11-12 - myc tag; also called DMS5516) EVQLLESGGGLVQPGGSLRLSCAASGFTFNRYSMGWLRQAPGKGLEWVSRIDSYGRGTYYEDPVKGRFSISRDNSKNTLYLQMNSLRAEDTAVYYCAKISQFGSNAFDYWGQGTQVTVSSASTSGPSDIQMTQSPSSLSASVGDRVTITCRASRPIGTMLSWYQQKPGKAPKLLILFGSRLQSGVPSRFSGSGSGTDFTLTISSLQPEDFATYYCAQAGTHPTTFGQGTKVEIKRAAAEQKLISEEDLN | 2
2 | DOM7h-11-15/DOM1m-21-23 fusion DMS number 5517 (other, DOM1m-21-23 - ASTSGPS - DOM7h-11-15 - myc tag; also called DMS5517; DOM1m21-23-DOM7h11-15) EVQLLESGGGLVQPGGSLRLSCAASGFTFNRYSMGWLRQAPGKGLEWVSRIDSYGRGTYYEDPVKGRFSISRDNSKNTLYLQMNSLRAEDTAVYYCAKISQFGSNAFDYWGQGTQVTVSSASTSGPSDIQMTQSPSSLSASVGDRVTITCRASRPIGTMLSWYQQKPGKAPKLLILAFSRLQSGVPSRFSGSGSGTDFTLTISSLQPEDFATYYCAQAGTHPTTFGQGTKVEIKRAAAEQKLISEEDLN | 2
